From paper PMC10684826
Where two headings read alike, the source gives them in different places.

What was measured:
Test in all cases: EMSA
EcoSSB = EcoSSB (Escherichia coli, UniProt P0AGE0 1-178)
AhoSSB [1] = target: T1, AhoSSB (Acidianus hospitalis W1, UniProt F4B912 1-142)
T1 sequence: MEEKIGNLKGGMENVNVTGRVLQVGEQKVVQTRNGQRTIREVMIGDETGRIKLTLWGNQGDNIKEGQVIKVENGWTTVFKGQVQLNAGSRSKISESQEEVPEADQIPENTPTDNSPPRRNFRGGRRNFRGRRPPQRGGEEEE

SheSSB [2] = target: T2, SheSSB (Staphylothermus hellenicus DSM 12710, UniProt D7D8N7 1-151)
T2 sequence: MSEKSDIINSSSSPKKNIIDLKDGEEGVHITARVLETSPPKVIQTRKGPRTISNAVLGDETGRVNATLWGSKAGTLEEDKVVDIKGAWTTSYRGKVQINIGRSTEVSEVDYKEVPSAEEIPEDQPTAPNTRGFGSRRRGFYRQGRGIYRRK

SacSSB [3] = target: T3, SacSSB (Sulfolobus acidocaldarius DSM 639, UniProt Q4JA43 1-146)
T3 sequence: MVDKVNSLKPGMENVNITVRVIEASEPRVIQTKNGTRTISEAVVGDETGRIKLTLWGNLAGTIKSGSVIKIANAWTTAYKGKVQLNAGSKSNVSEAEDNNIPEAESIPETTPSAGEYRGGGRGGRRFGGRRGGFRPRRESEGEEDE

SisSSB deltaC29 = target: T4, SisSSB deltaC29 (Saccharolobus islandicus REY15A, UniProt F0NBA9 1-119)
T4 sequence: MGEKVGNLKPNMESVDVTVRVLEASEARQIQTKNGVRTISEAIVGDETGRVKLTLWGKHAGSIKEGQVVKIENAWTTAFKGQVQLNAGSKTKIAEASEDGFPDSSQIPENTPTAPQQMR

SisSSB deltaC53 = target: T5, SisSSB deltaC53 (Saccharolobus islandicus REY15A, UniProt F0NBA9 1-95)
T5 sequence: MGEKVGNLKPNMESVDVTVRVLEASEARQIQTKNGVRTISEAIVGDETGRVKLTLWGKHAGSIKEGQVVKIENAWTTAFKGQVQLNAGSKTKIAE

AhoSSB [4] = target: T1, AhoSSB; remark: listed apart in the source
SheSSB [5] = target: T2, SheSSB; remark: listed apart in the source
SacSSB [6] = target: T3, SacSSB; remark: listed apart in the source

Measured: binding result

Sequence of EcoSSB (P0AGE0 whole entry): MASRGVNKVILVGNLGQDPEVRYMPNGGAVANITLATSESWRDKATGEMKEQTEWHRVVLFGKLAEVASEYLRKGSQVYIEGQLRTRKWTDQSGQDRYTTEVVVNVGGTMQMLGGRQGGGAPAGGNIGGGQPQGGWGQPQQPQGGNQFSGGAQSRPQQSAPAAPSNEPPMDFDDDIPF

AGGGTTCTTTGTGGCGGCGTCATCTGTGCTTCCCTATCCA (ssDNA) [Fam-ssDNA 40 nt]
not listed: AhoSSB [4] | SheSSB [5] | SacSSB [6]
binds: all other assays above

AGGGUUCUUUGUGGCGGCGUCAUCUGUGCUUCCCUAUCCA (ssRNA) [Fam-ssRNA 40 nt]
binds: SisSSB deltaC29 | SisSSB deltaC53 | AhoSSB [4] | SheSSB [5] | SacSSB [6]
